In article PMC4086254 one finds Kd data, which are given here for 4 substances.

pKd: −log10 of the molar value. “And” between values parts separate entries of the source, which are not always exact repeats. Equal entries are not always repeated. Where two headings read alike, the source gives them in different places.

As usually defined, the pKd is the Kd on a negative log10 scale, so that one unit is a factor of ten.

Assay [1] has as its target rabbit muscle G-actin (actin monomers; ATP-G-actin or ADP-G-actin) (rabbit) (UniProt P68135). In words: shift of the apparent critical concentration of pyrene-actin.
Assay [2] shares this target. Described as above. The source holds these as a separate data set.

As for “MBP-CAS-2 (full-length CAS-2, cyclase-associated protein-2, fused to maltose-binding protein) (natural protein)”, the pKd in assay [1] is 6.08.

“MBP-CAS-2C (C-terminal half of CAS-2, residues 208-457, fused to maltose-binding protein) (domain or fragment)”: the pKd was 5.77 and 5.54 in assay [1]; 6.00 and 6.02 in assay [2].

Take “MBP-CAS-2CΔWH2 (C-terminal half of CAS-2 lacking WH2, residues 275-457, fused to maltose-binding protein) (domain or fragment)”: the pKd in assay [1] is 5.77 and 5.92; in assay [2], 5.44 and 5.54.

“MBP-CAS-2N (N-terminal half of CAS-2, residues 1-207, fused to maltose-binding protein) (domain or fragment)”: the pKd in assay [1] was 5.54 and 6.08.
